Assay results from article PMC12455937, “Interaction of West Nile virus NS5 with orthoflavivirus SLA RNAs and their effects on viral replication and inhibition” (Journal of Virology, 2025).
“And” between values parts separate entries of the source, which are not always exact repeats. Identical values can stand only once.

Target: the molecule itself
Experiment: mass photometry; NS5 alone at 20 nM in MP buffer (50 mM HEPES, pH 7.5, 40 mM NaCl, 10 mM MgCl2); TwoMP (Refeyn); DENV NS3 and NS5 as mass standards; oligomers assigned from peak masses

B1: Full-length lineage II WNV NS5 (enzyme)
chain: not shown
notes: also called full-length NS5; viral polymerase
stoichiometry N: 2 and 3 and 4
